Experimental findings from PMC6901440 are described below.

This assay addresses Bcl-2 recombinant protein, P10415. In words: in vitro binding of Bcl-2 recombinant protein to immunoprecipitated Flag-GSDMD, western blot with band values printed under the Bcl-2 blot. Particulars: chain shown with the change; incubated for one hour, then heavily washed; parent: 1. A general note: Immunoblotting shows a protein as a band on a membrane.

Bcl-2 recombinant protein, P10415, sequence (P10415 whole entry): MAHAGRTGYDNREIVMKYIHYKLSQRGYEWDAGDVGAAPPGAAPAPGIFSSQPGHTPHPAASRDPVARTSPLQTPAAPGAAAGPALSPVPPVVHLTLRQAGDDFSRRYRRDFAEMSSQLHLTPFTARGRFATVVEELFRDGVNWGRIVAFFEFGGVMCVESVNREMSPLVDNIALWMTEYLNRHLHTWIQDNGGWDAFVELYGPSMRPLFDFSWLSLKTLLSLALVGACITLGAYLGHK

B1: Flag-GSDMD full length, P57764 L150Q (protein)
chain: MGSAFERVVRRVVQELDHGGEFIPVTSLQSSTGFQPYCLVVRKPSSSWFWKPRYKCVNLSIKDILEPDAAEPDVQRGRSFHFYDAMDGQIQGSVELAAPGQAKIAGGAAVSDSSSTSMNVYSLSVDPNTWQTLLHERHLRQPEHKVLQQQRSRGDNVYVVTEVLQTQKEVEVTRTHKREGSGRFSLPGATCLQGEGQGHLSQKKTVTIPSGSTLAFRVAQLVIDSDLDVLLFPDKKQRTFQPPATGHKRSTSEGAWPQLPSGLSMMRCLHNFLTDGVPAEGAFTEDFQGLRAEVETISKELELLDRELCQLLLEGLEGVLRDQLALRALEEALEQGQSLGPVEPLDGPAGAVLECLVLSSGMLVPELAIPVVYLLGALTMLSETQHKLLAEALESQTLLGPLELVGSLLEQSAPWQERSTMSLPPGLLGNSWGEGAPAWVLLDECGLELGEDTPHVCWEPQAQGRMCALYASLALLSGLSQEPH
Consider B1, for which the ratio to parent was determined as 0.45.
